Laboratory results taken from patent US20220356213A1 (MAX PLANCK GESELLSCHAFT ZUR F RDERUNG DER WISSENSCHAFTEN E V, published 2022).

Molecular target: T1, TMH-FLAG-(L1)-iLID
T1 chain: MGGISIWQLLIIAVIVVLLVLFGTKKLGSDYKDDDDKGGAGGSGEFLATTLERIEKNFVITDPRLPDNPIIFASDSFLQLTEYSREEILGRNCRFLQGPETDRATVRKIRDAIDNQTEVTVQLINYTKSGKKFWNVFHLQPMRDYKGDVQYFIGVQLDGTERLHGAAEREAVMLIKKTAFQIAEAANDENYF
Assay: cell-based or functional assay

B1: SspB_Nano-SctQ (other)
chain: MSLRSGAGSSPKRPKLLREYYDWLVDNSFTPYLVVDATYLGVNVPVEYVKDGQIVLNLSASATGNLQLTNDFIQFNARFKGVSRELYIPMGAALAIYARENGDGVMFEPEEIYDELNIGGAGELGGSGGSGGSLLTLPQAKLSELSLRQRLSHYRQNYLWEEGKLELTVSEPPSSLNCILQLQWKGTHFTLYCFGDDLANWLTPDLLGAPFSTLPKELQLALLERQTVFLPKLVCNDIATASLSVTQPLLSLRLSRDNAHISFWLTSAEALFALLPARPNSERIPLPILLSLRWHKVYLTLDEVDSLRLGDVLLAPEGSGPNSPVLAYVGENPWGYFQLQSNKLEFIGMSHESDELNPKPLTDLNQLPVQVSFEVGRQILDWHTLTSLEPGSLIDLTTPVDGEVRLLANGRLLGHGRLVEIQGRLGVRIERLTEVTIS
  L/D ratio of export of heterologous cargo YopE1-53-NanoLuc-FLAG, LITESEC-supp2: < 0.02
  L/D ratio of export of heterologous cargo, LITESEC-supp2: 0.01
  export of heterologous cargo, LITESEC-supp2, dark: 205 % WT secretion
  export of heterologous cargo, LITESEC-supp2, light: 2 % WT secretion
  light/dark secretion ratio (L/D ratio), LITESEC-supp1, native T3SS substrates, in vitro secretion assay: 0.28
  light/dark secretion ratio (L/D ratio), LITESEC-supp2 (anchor from pACYC184), native T3SS substrates: 0.26
